Results as given in the nanobody polyreactivity screen of Harvey et al. (2022).

assay: yeast display, Sf9 membrane polyspecificity reagent, FACS + sequencing; frameworks hold sequencing errors
How it was run: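 Galactose induction of a Saccharomyces cerevisiae BJ5465 synthetic nanobody display library ran 36–48 hours. The cells were then stained for 1 hour at 4 °C with 10% biotinylated, detergent-solubilized Sf9 membrane reagent, pulled down on streptavidin microbeads and FACS-sorted into low and high (top ~1%) gates on expression and reagent-binding fluorescence. Labels for polyreactivity follow the gate of origin.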

Row | Sequence | polyreactivity (PSR sort gate)
1 | QVQLVESGGGIVQAGGSLRLSCAASGFTFFIYTMGWYRQAPGKERELVAAIRSRTGSTYYADSVKGRITISRDNAKNTVYLQMNSLKPDDTAVYYCAATRVRSASYSIEYDYWGQGTQVTVSS | high polyreactivity
2 | QVQLVESGGGIVQAGGSLRLSCAASGFTFPVYAMGWYRQAPGKEREFVAAITYIGGSTYADSVKGRFTISRDNAKNTVYLQMNSLKPEDTAVYYCAADIITEYWADYLGYLEYDYWGQGTQVTVSS | low polyreactivity
3 | QVQLVESGGGIVQAGGSLRLSCAASGFTFWRYARGWYRQAPGKERELVAGISSGGSTNYADSVKGRFTISRDNAKNTVYLQMNSLKPEDTAVYYCAARGNYFYGIYGYWGQGTQVTVSS | low polyreactivity
4 | QVQLVESGGGIVQAGGSLRLSCAASGFTFWYYAMGWYRQAPGKERELVAVINTSGGSTYADSVKGRFTISRDNAKNTVYLQMNSLKPEDTAVYYCNKDFIYGYDAASYRPEYDYWGQGTQVTVSS | low polyreactivity
5 | QVQLVESGGGIVQAGGSLRLSCAASGFTILRYVMGWYRQAPGKERELVAAISYSGGRTYYADSVKGRFTISRDNAKHTVYLHMNSLKPEDPAVYYCAAARPFGYPPVMKYDYWGQVTQVTVSS | high polyreactivity
6 | QVQLVESGGGIVQAGGSLRLSCAASGFTLWLNAMGWYRQAPGKERELVAAITTSDDGTYYADSVKGRFTISRDNAKNTVYLQMNSLKPEDTAVYYCASDYYSVLYDYWGQGTQLTVSS | low polyreactivity
7 | QVQLVESGGGIVQAGGSLRLSCAASGFTYARYAKGWYRQAPGKERELVAAITRRGGSTHYADSVKGRFTISRDNAKNTVYLQMTSLKPEDTAVDYCAAYSLHNYLSEYGDWGQGTQVTVSS | high polyreactivity
8 | QVQLVESGGGIVQAGGSLRLSCAASGIIFSIYGMGWYRQAPGKERELVAAINSGSSTNYADSVKGRFTISRDNAKNTVYLQMNSLKREDTAVYYCNADYRYPQYYHRTWIRYDYWGQGTQVTVSS | high polyreactivity
9 | QVQLVESGGGIVQAGGSLRLSCAASGLIFSRYTMGWYRQAPAKEMELVAAISGRGTSTYYAYSVKGRFTISRDNAKNTVYLLMNSLKPEDTAVYYCATSKSYSAFDYWGQGTQVTVSS | high polyreactivity
10 | QVQLVESGGGIVQAGGSLRLSCAASGLIFYTYAMGWYRQAPGKEREIVAAISRRGGSTYYADSVKGRFTISRDNAKNTVYLQMNSLKPEDTAVYYCNARGGRYGTYSHYGYWGQGTQVTVSS | high polyreactivity
11 | QVQLVESGGGIVQAGGSLRLSCAASGLTFGFNAKGWYTQAPGQERELVATIDLNGGSTTYADSVKGRFTLSRDNAKNTVYLQMNSLKPEDTAVYYCAAQTGFVSHFFSHYDYGGQGTQVTVSS | low polyreactivity
12 | QVQLVESGGGIVQAGGSLRLSCAASGLTFVNYAMGSYRQAPGKERELVAAITVNGGRTYYADSVKGRFTISRDNAKNTVYLQMFSLKPEDTAVYFCAAVYYRHGYTYSSDYWGQGTQVTVSS | high polyreactivity
13 | QVQLVESGGGIVQAGGSLRLSCAASGNIFPYYDMGWYRPAPGKERELVAAITSSASGTYYADSVKGRFTISRDNAKNTVYLQMNSLKPEDTAVYYCAAGVFFFTFDYWGQGTQVTVSS | low polyreactivity
14 | QVQLVESGGGIVQAGGSLRLSCAASGNTFNFYAMGWYRQAPGKERELVASITSGGGTNYADSVKGRFTISRDNAKNTVYLQMNSLKPEDTAVYYCADQFYYHFRYHFDWGLGTQVTVSS | low polyreactivity
15 | QVQLVESGGGIVQAGGSLRLSCAASGNTYRWYAMGWNIQAPGKEREFVADITVRGGSTYYADSVKGRFTISRDNAKNTVYLQMNSLKPEDTAVYYCAADYRYGGSRGYRYDYWGQGTQVTVSS | low polyreactivity
16 | QVQLVESGGGIVQAGGSLRLSCAASGRIFGGNSMGWYRQAPGKERELVAAITTSGGSTYYADSVKGRFTISRDNAKNTVYLQMNSLKPEDTAVYSCAAGIGDSYWYRRYGYWGQGTQVTVSS | low polyreactivity
17 | QVQLVESGGGIVQAGGSLRLSCAASGRIFGHYAMGWYRPAPGKERELVAAITKNGDSTYYADSVKGRFTISRDNAKNRVYLPMNSLKPEDTAVYYCNAVYDLVCGEGYDSWGQGTQVTVSS | low polyreactivity
18 | QVQLVESGGGIVQAGGSLRLSCAASGRIFGWYAMGWYREAPGKERELVAAISSGGRTKYADSVKGRFTISRDNAKNTVYLQMNSLKAEDTAVYYCNARRSYLPYKFGYDYWGQGTQVTVSS | low polyreactivity
19 | QVQLVESGGGIVQAGGSLRLSCAASGRIFKYNAMGWYRQAPGKERELVAAISWSDGSTYYADSVKGRFTISRDNAKNTVYLQMNSLKPEDTAVYYCAARGYGFPELDYWGQGTQVTVSS | high polyreactivity
20 | QVQLVESGGGIVQAGGSLRLSCAASGRIFQFYAMGWYRQAPGKERELVAGITTSGGSTYYADSVKGRFTISRDNAKNTVYLQMNSLKPEDTAVYYCAASRHFARHRGYYFRYDYWGQGTQVTVSS | high polyreactivity
21 | QVQLVESGGGIVQAGGSLRLSCAASGRIFQYYAMGWYRQAPGKERELVASISGRGGRTYYADSVKGRFTISRDNAKNTVYLQMNSLKPEDTAVYYCNAVFSTIRYIRSYNYWGQGTQVTVSS | high polyreactivity
22 | QVQLVESGGGIVQAGGSLRLSCAASGRIIGYYAMGWYIQAPGKERELVARISSSGGSTYYADSVKGRFTISRDNAKNTVYLQMNSLKPEVTAVYYCNTASNRFPGWRAEFDYWGQGTQVTVSS | low polyreactivity

Row | Sequence | polyreactivity (PSR sort gate)
23 | QVQLVESGGGIVQAGGSLRLSCAASGRTFAVYAMGWYRQAPGKERELVAAINSSGRTDYADSVKGRFTISRDNAKNTVYLQMNSLKPEDTAVYYCNADFYFRRYRYRYNYWGQGTQVTVSS | high polyreactivity
24 | QVQLVESGGGIVQAGGSLRLSCAASGRTFRINGMGWYRQAPGKERELIAAISDGGSTNYADSVKGRFTISRDNAKNTVYLQMNSLKPEDTAVYYCAVDPYYFFYDEWLGDPNFDYWGQGTQVTVSS | low polyreactivity
25 | QVQLVESGGGIVQAGGSLRLSCAASGRTFRRYVMGWYRQAPGKERELVAAITVSGGNTYYADSVKGSFTISRDNAKNTVYLQMNSLKPEDTAVYYCNADAGAIYYRRYHFYYWGQGTQVTVSS | low polyreactivity
26 | QVQLVESGGGIVQAGGSLRLSCAASGRTFRSNVMGWYRQAPGKERELVAAISWRGGNTHYADSVKGRFTISRDNAKNTVYLQMNSLKREDTAVFYCAARVTSRRDPDQIHGYWGQGTQVTVSS | high polyreactivity
27 | QVQLVESGGGIVQAGGSLRLSCAASGRTFRYNTMGSYRQAPGKERELVAAINSRGGSTYYADSVKGRFTISRDNAKNTVYLQMNSLKPEDTAVYYCAALTRYNTASGYDYWGQGTQVTVSS | high polyreactivity
28 | QVQLVESGGGIVQAGGSLRLSCAASGRTFSSYARGWYRQAPGKERELVAAISSDGVDTYYADSVKGRFTISRDNAKNTVYLQMNSLKPEDTAVYYCNAEEGGPEYAYSYYRMDYWGQGTQVTVSS | low polyreactivity
29 | QVQLVESGGGIVQAGGSLRLSCAASGRTFYANAMGWYRQAPGKERELVAAISTVGDGTYYADSVKGRFTISRDNAKYTVYLQMNSLKPEDTAVYYCAVRHRASGILYDYWRQGTQVTVSS | low polyreactivity
30 | QVQLVESGGGIVQAGGSLRLSCAASGRTFYSSAMGWYRQAPGKERALVAAITSDGGTYYADSVKGRFTISRDNAKNTVYLQMNSLKPEDTAVYYCNTRDLYGYPQVTGYDYWGQGSQVTVSS | low polyreactivity
31 | QVQLVESGGGIVQAGGSLRLSCAASGRTLQRNAMGWYRQAPGKERELVAAISWSGASTYYADSVKGRFTISRDNAKNTVYLQMNSLKPEDTAVYYCAATYIDRGNIYDYWGQGTQVTVSS | high polyreactivity
32 | QVQLVESGGGIVQAGGSLRLSCAASGSIFDVYAMGWYRQAPGKERELVAAITWRGGNTYYADSVKGRFTISRDNAKNTVYLQMNSLKPEDTAVYYCNALHRIRYTPSSRYDYWGQGTQVTVSS | low polyreactivity
33 | QVQLVESGGGIVQAGGSLRLSCAASGSIFHYYAMGWYRQAPGKESELVAAISWSGGRTNYADSVKGRFTISRDNAKNTVYLQMNSLKPEDTAVYYCAAAERSFSGGGKIGKYYYWGQGTQVTVSS | high polyreactivity
34 | QVQLVESGGGIVQAGGSLRLSCAASGSIFLYYAMGWYRQAPGKERELVAPIRGSGSSTYYADSVKGRFTISRDNAKNTVYLQMNSLKPEDTAVYYCSAKGYRWFRHGGYYFKFDYWGQGTQVTVSS | high polyreactivity
35 | QVQLVESGGGIVQAGGSLRLSCAASGSIFPDNAMGWYRQAPGKERELVAAIDKGTGSTNYADSVKGRFTISRDNAKNTVYLQMNSLKPEDTAVYYDYWGQGTQVSVSS | low polyreactivity
36 | QVQLVESGGGIVQAGGSLRLSCAASGSIFPDNTMGWYRQAPGKERELVAAITGDGSTYYADSVKGRFTISRDNAKNTVYLERNSLKPEDTAVYYCAAASPSWSYWPRDYWGQGTQVTVSS | low polyreactivity
37 | QVQLVESGGGIVQAGGSLRLSCAASGSIFSYYAMGWYRQAPGKERELVAAITSGGATTYYADSVKGRFTISRDNAKNTVYLQMNSLKPEDTAVYYCAAGYYVYYRWWELDYWGQGTQVTVSS | low polyreactivity
38 | QVQLVESGGGIVQAGGSLRLSCAASGSISVPYGMGWYRPAPGKERELVAAITGGSTYYADSVKGRFTISRDNAKNTVYLQMNSLIPEDTAVYYCFDVNTDVLSRVYRGWGYYYWGQGTQVTVSS | low polyreactivity
39 | QVQLVESGGGIVQAGGSLRLSCAASGSNFVVNAMGWYRQAPGKERELVAAITQSGGSTFYADSVKGRFTISRDNAKNTVYLQMNSLIPEDTAVYYWGQGTQVTVSS | low polyreactivity
40 | QVQLVESGGGIVQAGGSLRLSCAASGSTFAANAMGWYRPAPGKERELVAAITSGGGSTYYADSVKGRFTISRDNAKNTVYLQMNSLKPEDTAVYYCNAADWLETQVDLDYWGQGTQVTVSS | low polyreactivity
41 | QVQLVESGGGIVQAGGSLRLSCAASGSTFFSYAMGLYRQAPGKERELVAGIDWNGGDTNYADSVKGRFTISRDNAKNTVYLQMNSLKPEETAVYYCATDYSFPGPFRRRERFDYWGQGTQVTVSS | low polyreactivity
42 | QVQLVESGGGIVQAGGSLRLSCAASGSTFGFYAMGWYRQAPGKERELVAAISSAARTYYADSVKGRFTISRDNAMNTVYLQMNSMKPEDTAVYYCSAEAYHWTSYIGYGGVYYWGQGTKVTVSS | low polyreactivity
43 | QVQLVESGGGIVQAGGSLRLSCAASGSTFGGNAMGWYRQAPGKERELVAAITSGTGTHYADSVKGRFTISRDNAKNTVYLQMNSLKPEATAVYFCAAEVWSWAGIWGYEYWGQGTQVSVSS | low polyreactivity
